Assay results from patent publication US20260209387A1, “SINGLE-DOMAIN ANTIBODY FOR INHIBITION OF NEUTROPHIL ELASTASE ACTIVITY” (UNIVERSITE DE LIEGE, priority 2023, published 2026).

Tests used:
hNE [1] = target: T1, hNE (Homo sapiens, UniProt P08246); assay: Affinity of NbE201 for hNE by BLI; assay type: binding
T1 construct: purchased Elastin Products Company (EPC)
T1 sequence (P08246 30-247): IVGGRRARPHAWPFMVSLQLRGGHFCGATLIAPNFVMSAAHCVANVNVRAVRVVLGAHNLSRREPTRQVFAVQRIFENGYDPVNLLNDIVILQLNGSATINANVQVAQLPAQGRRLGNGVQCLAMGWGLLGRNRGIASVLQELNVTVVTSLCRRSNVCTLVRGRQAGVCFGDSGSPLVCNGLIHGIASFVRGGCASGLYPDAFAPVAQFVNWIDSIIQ
Description: The affinity of NbE201 for hNE and mNE was measured by BLI with the Octet HTX machine using various settings. […] For hNE, the biotinylated NbE201 (0.5 μg·mL^−1) was immobilized on streptavidin biosensors (SA, Sartorius) following the provider's indications. Then, the biosensors were immersed in a solution of hNE at different concentrations (25-6.25-3.125-1.5163-0.753 nM). Association and dissociation kinetics were measured for 180 s and 300 s respectively, in 10×KB buffer. All the experiments were carried out at 30° C. in 96-wells or 384-wells black-bottom microplates in polypropylene (Greiner Bio-One, Belgium) and with orbital agitation (1500 rpm). The sensorgrams obtained were fitted globally to a 1:1 model to derive the rate constants for association (kon) and dissociation (koff) and the equilibrium dissociation constant (KD=koff/kon). […] were carried out. The error on KD was calculated using the following equation: […]

hNE [2] = target: T1, hNE; assay: hNE inhibition, hydrolysis of chromogenic substrate N-Succinyl-Ala-Ala-Ala-paraNitroAnilide; assay type: biochemical; conditions: hNE vs mNE
Description: Inhibition of the hydrolysis of a chromogenic substrate. […] Briefly, hNE (Elastin products company, EPC, United States) was resuspended at 1 mg·mL^−1 in 50 mM sodium acetate buffer pH 5 containing 100 mM NaCl and stored at 4° C. The substrate Succinyl-Ala-Ala-Ala-paraNitroAnilide was dissolved at 1 mM in 0.1 M Tris pH 7.5 with NaCl 0.5 M and NaN3 0.01% (% w/v) and stored at 4° C. 230 μl of substrate (1 mM) were mixed with 10 μl of Bovine Serum Albumin 9 μM (BSA, Sigma-Aldrich, Germany) and incubated 20 min at 25° C. in a clear flat bottom 96-well plate (Greiner Bio-One, Belgium). […] The absorbance at 410 nm was measured every min for 60 minutes in a SpectraMax M2e Microplates Reader (Molecular Devices, California, USA). The initial velocity determined in the presence of the ISVD at different Nb: hNE ratios was compared to that measured in the absence of the ISVD, to determine the residual activity. […]
The absorbance at 410 nm was measured every min for 60 minutes. The initial velocity determined in the presence of the inhibitor at different inhibitor: hNE ratios was compared to that measured in the absence of the inhibitor, to determine the residual activity. […] The hNE activity was monitored at 410 nm for 10 minutes using the spectrophotometer Specord 50 Plus (Analytik Jena) and data were collected with the WinAspectPlus software. […]

[3] = tested on: hNE-induced alveolar-capillary damage; assay: hNE-induced acute lung injury mouse model; assay type: in vivo, mice; conditions: nasal instillation 15 min prior to hNE 25 μg; molar ratio Nb/HNE 4/1
Description: The in vivo efficacy of NbE201 was determined using a mouse model of acute lung injury induced by nasal instillation of HNE (L agente et al., 2009, American Thoracic Society International Conference Abstracts. (American Thoracic Society), A5668. doi: 10.1164/ajrccm-conference.2009.179.1_MeetingAbstracts.A5668). […]
It was determined with the hemoglobin assay kit (Sigma) and performed according to the manufacturer's instructions. […] A measurement of the optical density at 400 nm allowed the quantification of this stable complex. […]
Histological sections of the lung were digitized using a panoramic scan 2 (3[…]). […] This semi-automated analysis made it possible to quantify the damaged alveolar surface. […] The percentage of injured surface was determined by the ratio: % injured area=(injured area/alveolar area)×100

affinity for hNE relative to mNE (hNE [1]; hNE vs mNE): about 10 times
koff (hNE [1]; hNE, BLI): 3.2 ± 0.2 · 10^−3 s^−1
kon (hNE [1]; hNE, BLI): 2.6 ± 0.9 · 10^6 M^−1 s^−1
inhibitory activity to hNE relative to mNE (hNE [2]): about 10 times
B1: NbE201: anti-hNE ISVD (VHH/nanobody) from immunized lama, amino acid sequence SEQ ID NO: 4 (protein)
VHH: QVQLQESGGGLVQAGGSLRLSCVVPGRTISLYRMGWFRQAPGKEREFVAGINWSGDMTDYVDSVKGRFTISRDNAKNTVYLEMNSLKPEDTAIYYCTADPKLLPLADSSYGYWGQGTQVTVSS
protection against hNE-induced alveolar-capillary damage [3]: protects the lungs from developing alveolar-capillary damage
